According to patent US20140030270A1:

Key:
[1] = target: cynomolgus monkey PCSK9, V5-6xHIS tagged (cynomolgus monkey); assay: SPR (Biacore 2000), antibody amine-coupled to the chip, PCSK9 as analyte, pH 7.4
[2] = target: cynomolgus monkey PCSK9, V5-6xHIS tagged (cynomolgus monkey); assay: Biacore solution equilibrium assay, free PCSK9 measured on immobilised 21B12
[3] = target: cynomolgus monkey PCSK9, V5-6xHIS tagged (cynomolgus monkey); assay: KinExA solution equilibrium, PCSK9-coated beads; cyno PCSK9

B1: 21B12 IgG4 (21B12, anti-PCSK9 huIgG4) (antibody, V domains shown)
VH: QVQLVQSGAEVKKPGASVKVSCKASGYTLTSYGISWVRQAPGQGLEWMGWVSFYNGNTNYAQKLQGRGTMTTDPSTSTAYMELRSLRSDDTAVYYCARGYGMDVWGQGTTVTVSS
VL: QSALTQPASVSGSPGQSITISCTGTSSDVGGYNSVSWYQQHPGKAPKLMIYEVSNRPSGVSNRFSGSKSGNTASLTISGLQAEDEADYYCNSYTSTSMVFGGGTKLTVLQ
Kd [1]: 0.36 nM
Kd [2]: 0.011 nM

B2: 16F12 IgG4 (16F12, anti-PCSK9 huIgG4) (antibody, V domains shown)
VH: QVHLVESGGGVVQPGRSLRLSCAASGFTFNSFGMHWVRQAPGKGLEWVALIWSDGSDEYYADSVKGRFTISRDNSKNTLYLQMNSLRAEDTAVYYCARAIAALYYYYGMDVWGQGTTVTVSS
VL: QSVLTQPPSVSAAPGQKVTISCSGSSSNIGNNFVSWYQQLPGTAPKLLIYDYNKRPSGIPDRFSGSKSGTSATLGITGLQTGDEADYYCGTWDSSLSAYVFGTGTRVTVLQ
Kd [1]: 0.87 nM
Kd [3]: 0.016 nM
